# Patent US20220218785A1 (ALPINE IMMUNE SCIENCES, published 2022)
# Residue numbers refer to the chain shown, from its start. In names and notes the source's numbering stands.
# B1: variant ICOSL ECD-Fc N52H/N57Y/Q100R/F172S, AAA linker, Fc C220S/E233P/L234V/L235A/G236del/S267K (SEQ ID NO: 44) (Fc fusion)
# chain: DTQEKEVRAMVGSDVELSCACPEGSRFDLNDVYVYWQTSESKTVVTYHIPQHSSLEYVDSRYRNRALMSPAGMLRGDFSLRLFNVTPQDEQKFHCLVLSRSLGFQEVLSVEVTLHVAANFSVPVVSAPHSPSQDELTFTCTSINGYPRPNVYWINKTDNSLLDQALQNDTVSLNMRGLYDVVSVLRIARTPSVNIGCCIENVLLQQNLTVGSQTGNDIGERDKITENPVSTGEKNAATAAAEPKSSDKTHTCPPCPAPPVAGPSVFLFPPKPKDTLMISRTPEVTCVVVDVKHEDPEVKFNWYVDGVEVHNAKTKPREEQYNSTYRVVSVLTVLHQDWLNGKEYKCKVSNKALPAPIEKTISKAKGQPREPQVYTLPPSREEMTKNQVSLTCLVKGFYPSDIAVEWESNGQPENNYKTTPPVLDSDGSFFLYSKLTVDKSRWQQGNVFSCSVMHEALHNHYTQKSLSLSPGK
# notes: Made in 293 cells; Fc or allotypes thereof
# B2: variant ICOSL ECD-Fc N52H/N57Y/Q100P, AAA linker, Fc C220S/E233P/L234V/L235A/G236del/S267K (SEQ ID NO: 44) (Fc fusion)
# chain: B1 chain with R100P, S172F
# notes: as for B1
# B3: ICOSL ECD Truncation #7 with N52H/N57Y/Q100R/F172S and F83S, Fc fusion (Fc fusion)
# chain: DTQEKEVRAMVGSDVELSCACPEGSRFDLNDVYVYWQTSESKTVVTYHIPQHSSLEYVDSRYRNRALMSPAGMLRGDFSLRLSNVTPQDEQKFHCLVLSRSLGFQEVLSVEVTLHVAANFSVPVVSAPHSPSQDELTFTCTSINGYPRPNVYWINKTDNSLLDQALQNDTVSLNMRGLYDVVSVLRIARTPSVNIGCCIENGGGGSGGGGSEPKSSDKTHTCPPCPAPEAEGAPSVFLFPPKPKDTLMISRTPEVTCVVVDVSHEDPEVKFNWYVDGVEVHNAKTKPREEQYNSTYRVVSVLTVLHQDWLNGKEYKCKVSNKALPAPIEKTISKAKGQPREPQVYTLPPSREEMTKNQVSLTCLVKGFYPSDIAVEWESNGQPENNYKTTPPVLDSDGSFFLYSKLTVDKSRWQQGNVFSCSVMHEALHNHYTQKSLSLSPG
# notes: Made in CHO cells; F83S is an additional mutation found later in the clone
# B4: ICOSL ECD Truncation #6 with N52H/N57Y/Q100R/C198R (Fc fusion, not shown: a dimerising Fc or GST)
# chain: DTQEKEVRAMVGSDVELSCACPEGSRFDLNDVYVYWQTSESKTVVTYHIPQHSSLEYVDSRYRNRALMSPAGMLRGDFSLRLFNVTPQDEQKFHCLVLSRSLGFQEVLSVEVTLHVAANFSVPVVSAPHSPSQDELTFTCTSINGYPRPNVYWINKTDNSLLDQALQNDTVFLNMRGLYDVVSVLRIARTPSVNIGCRIENVLL
# notes: Made in CHO cells
# B5: ICOSL IgV with N52H/N57Y/Q100R and H48R/S54P, Fc fusion (Fc fusion)
# chain: DTQEKEVRAMVGSDVELSCACPEGSRFDLNDVYVYWQTSESKTVVTYRIPQHSPLEYVDSRYRNRALMSPAGMLRGDFSLRLFNVTPQDEQKFHCLVLSRSLGFQEVLSVEVTLHVAANFSVGGGGSGGGGSEPKSSDKTHTCPPCPAPEAEGAPSVFLFPPKPKDTLMISRTPEVTCVVVDVSHEDPEVKFNWYVDGVEVHNAKTKPREEQYNSTYRVVSVLTVLHQDWLNGKEYKCKVSNKALPAPIEKTISKAKGQPREPQVYTLPPSREEMTKNQVSLTCLVKGFYPSDIAVEWESNGQPENNYKTTPPVLDSDGSFFLYSKLTVDKSRWQQGNVFSCSVMHEALHNHYTQKSLSLSPG
# notes: Made in CHO cells. '554P' is read as S54P; also called ICOSL IgV with N52H/N57Y/Q100R and H48R/554P
# B6: ICOSL ECD Truncation #7 with N52H/N57Y/Q100R/C198R and E90K/E111G (Fc fusion, not shown: a dimerising Fc or GST)
# chain: DTQEKEVRAMVGSDVELSCACPEGSRFDLNDVYVYWQTSESKTVVTYHIPQHSSLEYVDSRYRNRALMSPAGMLRGDFSLRLFNVTPQDKQKFHCLVLSRSLGFQEVLSVGVTLHVAANFSVPVVSAPHSPSQDELTFTCTSINGYPRPNVYWINKTDNSLLDQALQNDTVFLNMRGLYDVVSVLRIARTPSVNIGCRIEN
# notes: Made in CHO cells
# B7: ICOSL ECD Truncation #6 with N52H/N57Y/Q100R/F172S, Fc fusion (Fc fusion)
# chain: DTQEKEVRAMVGSDVELSCACPEGSRFDLNDVYVYWQTSESKTVVTYHIPQHSSLEYVDSRYRNRALMSPAGMLRGDFSLRLFNVTPQDEQKFHCLVLSRSLGFQEVLSVEVTLHVAANFSVPVVSAPHSPSQDELTFTCTSINGYPRPNVYWINKTDNSLLDQALQNDTVSLNMRGLYDVVSVLRIARTPSVNIGCCIENVLLGGGGSGGGGSEPKSSDKTHTCPPCPAPEAEGAPSVFLFPPKPKDTLMISRTPEVTCVVVDVSHEDPEVKFNWYVDGVEVHNAKTKPREEQYNSTYRVVSVLTVLHQDWLNGKEYKCKVSNKALPAPIEKTISKAKGQPREPQVYTLPPSREEMTKNQVSLTCLVKGFYPSDIAVEWESNGQPENNYKTTPPVLDSDGSFFLYSKLTVDKSRWQQGNVFSCSVMHEALHNHYTQKSLSLSPG
# notes: Made in CHO cells
# B8: ICOSL ECD Truncation #8 with N207G/L208G and N52H/N57Y/Q100R/F172S, Fc fusion (Fc fusion)
# chain: DTQEKEVRAMVGSDVELSCACPEGSRFDLNDVYVYWQTSESKTVVTYHIPQHSSLEYVDSRYRNRALMSPAGMLRGDFSLRLFNVTPQDEQKFHCLVLSRSLGFQEVLSVEVTLHVAANFSVPVVSAPHSPSQDELTFTCTSINGYPRPNVYWINKTDNSLLDQALQNDTVSLNMRGLYDVVSVLRIARTPSVNIGCCIENVLLQQGGTGGGGSGGGGSEPKSSDKTHTCPPCPAPEAEGAPSVFLFPPKPKDTLMISRTPEVTCVVVDVSHEDPEVKFNWYVDGVEVHNAKTKPREEQYNSTYRVVSVLTVLHQDWLNGKEYKCKVSNKALPAPIEKTISKAKGQPREPQVYTLPPSREEMTKNQVSLTCLVKGFYPSDIAVEWESNGQPENNYKTTPPVLDSDGSFFLYSKLTVDKSRWQQGNVFSCSVMHEALHNHYTQKSLSLSPG
# notes: Made in CHO cells
# B9: ICOSL ECD with N52H/N57Y/Q100R/C198R (Table 18) (Fc fusion, not shown: a dimerising Fc or GST)
# chain: DTQEKEVRAMVGSDVELSCACPEGSRFDLNDVYVYWQTSESKTVVTYHIPQHSSLEYVDSRYRNRALMSPAGMLRGDFSLRLFNVTPQDEQKFHCLVLSRSLGFQEVLSVEVTLHVAANFSVPVVSAPHSPSQDELTFTCTSINGYPRPNVYWINKTDNSLLDQALQNDTVFLNMRGLYDVVSVLRIARTPSVNIGCRIENVLLQQNLTVGSQTGNDIGERDKITENPVSTGEKNAAT
# notes: Made in CHO cells; May be the same construct as m37
# B10: ICOSL ECD Truncation #5 with N52H/N57Y/Q100R/C198R (Fc fusion, not shown: a dimerising Fc or GST)
# chain: DTQEKEVRAMVGSDVELSCACPEGSRFDLNDVYVYWQTSESKTVVTYHIPQHSSLEYVDSRYRNRALMSPAGMLRGDFSLRLFNVTPQDEQKFHCLVLSRSLGFQEVLSVEVTLHVAANFSVPVVSAPHSPSQDELTFTCTSINGYPRPNVYWINKTDNSLLDQALQNDTVFLNMRGLYDVVSVLRIARTPSVNIGCRIENVLLQQ
# notes: Made in CHO cells
# B11: ICOSL ECD Truncation #4 with N52H/N57Y/Q100R/F172S and E200G, Fc fusion (Fc fusion)
# chain: DTQEKEVRAMVGSDVELSCACPEGSRFDLNDVYVYWQTSESKTVVTYHIPQHSSLEYVDSRYRNRALMSPAGMLRGDFSLRLFNVTPQDEQKFHCLVLSRSLGFQEVLSVEVTLHVAANFSVPVVSAPHSPSQDELTFTCTSINGYPRPNVYWINKTDNSLLDQALQNDTVSLNMRGLYDVVSVLRIARTPSVNIGCCIGNVLLQQNGGGGSGGGGSEPKSSDKTHTCPPCPAPEAEGAPSVFLFPPKPKDTLMISRTPEVTCVVVDVSHEDPEVKFNWYVDGVEVHNAKTKPREEQYNSTYRVVSVLTVLHQDWLNGKEYKCKVSNKALPAPIEKTISKAKGQPREPQVYTLPPSREEMTKNQVSLTCLVKGFYPSDIAVEWESNGQPENNYKTTPPVLDSDGSFFLYSKLTVDKSRWQQGNVFSCSVMHEALHNHYTQKSLSLSPG
# notes: Made in CHO cells; E200G is an additional mutation found later in the clone
# Biological target: T1, human CD28 (human, UniProt P10747 19-220)
# T1 construct: whole, on cells
# Assay: flow cytometry, Expi293 cells with human CD28
# From the text: (§1) Expi293 cells transfected with cognate binding partners, human CD28, ICOS and CTLA4, were used as target cells in binding studies.
row,Binder,MFI (ΔWT)
1,B1,10.9 fold vs WT
2,B2,13.3 fold vs WT

# Biological target: T2, human ICOS (human, UniProt Q9Y6W8 21-199)
# T2 construct: whole, on cells
# T2 sequence (looked up): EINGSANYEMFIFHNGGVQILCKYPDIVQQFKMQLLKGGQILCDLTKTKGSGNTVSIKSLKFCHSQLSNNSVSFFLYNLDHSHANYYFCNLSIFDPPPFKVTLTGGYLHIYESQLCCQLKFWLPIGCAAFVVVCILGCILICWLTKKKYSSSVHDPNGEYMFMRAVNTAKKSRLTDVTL
# Assay: flow cytometry, Expi293 cells with human ICOS
# Description: Binding studies were carried out on transfected HEK293 cells generated to express the full-length mammalian (human) surface ligands, CD28, ICOS or CTLA-4, using a transient transfection system (Life Technologies, USA). As a control, binding to mock (non-transfected) cells also was assessed. For staining by flow cytometry, 200,000 cells of appropriate transient transfection or negative control (mock) were plated in 96 well round bottom plates, and, then incubated in staining buffer (PBS, phosphate buffered saline; 1% BSA, bovine serum albumin; and 0.1% sodium azide) for 20 minutes to block non-specific binding. Cells were resuspended in staining buffer containing 100 nM to 1 nM variant immunomodulatory protein in 50 μL. Mean Fluorescence Intensity (MFI) was calculated for each transfectant and negative parental line with Cell Quest Pro software (Becton Dickinson, USA) or a Hypercyt flow cytometer (Intellicyte, USA).
# as §1
row,Binder,MFI (ΔWT)
1,B1,1.3 fold vs WT
2,B2,1.3 fold vs WT

# Biological target: T3, human CTLA-4 (human, UniProt P16410 36-223)
# T3 construct: whole, on cells
# Assay: flow cytometry, Expi293 cells with human CTLA-4
# From the text: as §1
# T3 sequence (P16410 36-223): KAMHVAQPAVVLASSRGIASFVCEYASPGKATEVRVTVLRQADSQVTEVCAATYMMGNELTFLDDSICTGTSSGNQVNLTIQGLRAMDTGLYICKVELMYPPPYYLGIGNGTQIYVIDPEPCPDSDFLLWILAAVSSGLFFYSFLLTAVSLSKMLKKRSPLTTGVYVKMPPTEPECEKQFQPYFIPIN
row,Binder,MFI (ΔWT)
1,B1,20.5 fold vs WT
2,B2,33.5 fold vs WT

# Biological target: T1, human CD28
# Assay: flow cytometry, cells with human CD28; protein from CHO
Binder,MFI (ΔWT),MFI
B3,51.1 fold vs WT,–
B4,49 fold vs WT,84600 MFI
B5,43.6 fold vs WT,–
B6,22.5 fold vs WT,38900 MFI
B7,52.8 fold vs WT,–
B8,62.4 fold vs WT,–
B9,34.3 fold vs WT,59200 MFI
B10,50 fold vs WT,86300 MFI
B11,46.6 fold vs WT,–

# Biological target: T2, human ICOS
# Assay: flow cytometry, cells with human ICOS; protein from CHO
Binder,MFI (ΔWT),MFI
B3,1.1 fold vs WT,–
B4,0.9 fold vs WT,91400 MFI
B5,1.4 fold vs WT,–
B6,0.5 fold vs WT,54600 MFI
B7,0.9 fold vs WT,–
B8,1.3 fold vs WT,–
B9,1.4 fold vs WT,139000 MFI
B10,1.1 fold vs WT,110000 MFI
B11,1.1 fold vs WT,–

# Biological target: T3, human CTLA-4
# Assay: flow cytometry, cells with human CTLA-4; protein from CHO
Binder,MFI (ΔWT),MFI
B3,27.3 fold vs WT,–
B4,31.1 fold vs WT,236000 MFI
B5,42.4 fold vs WT,–
B6,11 fold vs WT,83700 MFI
B7,31.6 fold vs WT,–
B8,40.7 fold vs WT,–
B9,17.5 fold vs WT,133000 MFI
B10,28.5 fold vs WT,216000 MFI
B11,42.3 fold vs WT,–
